The results in this text go back to article PMC9352680, “A comprehensive thermodynamic model for RNA binding by the Saccharomyces cerevisiae Pumilio protein PUF4”.

For the data set, the target named is T1, PUF4 RNA-binding domain (Saccharomyces cerevisiae, UniProt P25339 537-888).
T1 sequence: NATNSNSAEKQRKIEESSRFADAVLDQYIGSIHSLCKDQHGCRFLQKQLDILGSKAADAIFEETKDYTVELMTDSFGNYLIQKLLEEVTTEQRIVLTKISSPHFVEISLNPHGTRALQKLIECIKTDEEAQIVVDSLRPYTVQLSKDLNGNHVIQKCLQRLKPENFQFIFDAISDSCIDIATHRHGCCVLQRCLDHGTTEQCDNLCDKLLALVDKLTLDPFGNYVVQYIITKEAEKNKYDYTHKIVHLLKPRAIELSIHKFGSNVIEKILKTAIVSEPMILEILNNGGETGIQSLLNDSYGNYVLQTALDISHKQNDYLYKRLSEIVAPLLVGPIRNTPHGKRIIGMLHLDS
The data set can be described thus: Mg; RNA-MaP; 20 mM Na-HEPES pH 7.4, 30 mM KOAc, 0.75 mM MgCl2, 0.1% Tween-20, 5% glycerol, 0.1 mg/mL BSA, 2 mM DTT; 25 C; 0.0125-409.6 nM protein. The note with it: tags: N-His6-TEV cleaved; C-SNAP kept, Cy3B-labelled; label: tethered on chip by stalled RNA polymerase.

UCUCUUUGUAUGCCGGUCUCUU (ssRNA) [Ic_S1_P5E.1_K5.1_C5.1_H5.1_A5.1_[T6G]_[A7C]_F5.1_[T8C]_[T9G]_[A10G]_T5.1] returned a Kd of over 2300 nM. Take UCUCUUUGUAAACGCUUCUCUU (ssRNA) [Ic_S1_P5E.1_K5.1_C5.1_H5.1_A5.1_[T5A]_[T6A]_[A7C]_F5.1_[T8G]_[T9C]_[A10T]_T5.1]: the Kd was 854 nM. UCUCUUUGUAGCCCUAUCUCUU (ssRNA) [Ic_S1_P5E.1_K5.1_C5.1_H5.1_A5.1_[T5G]_[T6C]_[A7C]_F5.1_[T8C]_T5.1] had a Kd of 113 nM. To UCUCUUUGUAGUUCCUUCUCUU (ssRNA) [Ic_S1_P5E.1_K5.1_C5.1_H5.1_A5.1_[T5G]_[A7T]_F5.1_[T8C]_[T9C]_[A10T]_T5.1] belongs 1760 nM; to UCUCUUUGUAUAUGAUUCUCUU (ssRNA) [Ic_S1_P5E.1_K5.1_C5.1_H5.1_A5.1_[T6A]_[A7T]_F5.1_[T8G]_[T9A]_[A10T]_T5.1], 12.1 nM; to UCUCUUUGUAACAUGCUCUCUU (ssRNA) [Ic_S1_P5E.1_K5.1_C5.1_H5.1_A5.1_[T5A]_[T6C]_F5.1_[T9G]_[A10C]_T5.1], 13.2 nM.

The molecule UCUCUUUGUAUCUCUCUCUU (ssRNA) [Ic_S1_P3E.1_K3.1_C3.1_H3.1_A3.1_[A6C]_F3.1_[A8C]_T3.1] registered a Kd of 97.4 nM. Molecule UCUCUUUGUAUUUUCGUCUCUU (ssRNA) [Ic_S1_P5E.1_K5.1_C5.1_H5.1_A5.1_[A7T]_F5.1_[T9C]_[A10G]_T5.1] gave a Kd of 37.6 nM. To UCUCUUUGUACCUUUAUCUCUU (ssRNA) [Ic_S1_P5E.1_K5.1_C5.1_H5.1_A5.1_[T5C]_[T6C]_[A7T]_F5.1_T5.1] belongs 6.83 nM. Under UCUCUUUGUAAUUUAGUCUCUU (ssRNA) [Ic_S1_P5E.1_K5.1_C5.1_H5.1_A5.1_[T5A]_[A7T]_F5.1_[T9A]_[A10G]_T5.1] stands 3.08 nM; under UCUCUUUGUACACACGUCUCUU (ssRNA) [Ic_S1_P5E.1_K5.1_C5.1_H5.1_A5.1_[T5C]_[T6A]_[A7C]_F5.1_[T8A]_[T9C]_[A10G]_T5.1], 122 nM. To UCUCUUUGUAUGUCUCUCUU (ssRNA) [Ic_S1_P3E.1_K3.1_C3.1_H3.1_A3.1_[A6G]_F3.1_[A8C]_T3.1] belongs 677 nM; to UCUCUUUGUAGCUUUUUCUCUU (ssRNA) [Ic_S1_P5E.1_K5.1_C5.1_H5.1_A5.1_[T5G]_[T6C]_[A7T]_F5.1_[A10T]_T5.1], 516 nM; to UCUCUUUGUACUGGCUUCUCUU (ssRNA) [Ic_S1_P5E.1_K5.1_C5.1_H5.1_A5.1_[T5C]_[A7G]_F5.1_[T8G]_[T9C]_[A10T]_T5.1], 991 nM.

Molecule UCUCUUUGUAAAAACCUCUCUU (ssRNA) [Ic_S1_P5E.1_K5.1_C5.1_H5.1_A5.1_[T5A]_[T6A]_F5.1_[T8A]_[T9C]_[A10C]_T5.1] gave a Kd of 1140 nM.

Regarding UCUCUUUGUAAACCUCUCUCUU (ssRNA) [Ic_S1_P5E.1_K5.1_C5.1_H5.1_A5.1_[T5A]_[T6A]_[A7C]_F5.1_[T8C]_[A10C]_T5.1], the affinity, expressed as Kd, was 548 nM.

UCUCUUUGUAACCUAGUCUCUU (ssRNA) [Ic_S1_P5E.1_K5.1_C5.1_H5.1_A5.1_[T5A]_[T6C]_[A7C]_F5.1_[T9A]_[A10G]_T5.1] showed a Kd of 4.64 nM.

The molecule UCUCUUUGUACUACACUCUCUU (ssRNA) [Ic_S1_P5E.1_K5.1_C5.1_H5.1_A5.1_[T5C]_F5.1_[T8C]_[T9A]_[A10C]_T5.1] registered a Kd of 455 nM. Consider UCUCUUUGUAUACCGAUCUCUU (ssRNA) [Ic_S1_P5E.1_K5.1_C5.1_H5.1_A5.1_[T6A]_[A7C]_F5.1_[T8C]_[T9G]_T5.1], for which the Kd is 450 nM. UCUCUUUGUAUGUUUCUCUU (ssRNA) [Ic_S1_P3E.1_K3.1_C3.1_H3.1_A3.1_[A6G]_F3.1_[A8T]_T3.1] showed a Kd of 49.3 nM.

UCUCUUUGUACCUGCCUCUCUU (ssRNA) [Ic_S1_P5E.1_K5.1_C5.1_H5.1_A5.1_[T5C]_[T6C]_[A7T]_F5.1_[T8G]_[T9C]_[A10C]_T5.1] registered a Kd of 353 nM. To UCUCUUUGUAGCCUAUUCUCUU (ssRNA) [Ic_S1_P5E.1_K5.1_C5.1_H5.1_A5.1_[T5G]_[T6C]_[A7C]_F5.1_[T9A]_[A10T]_T5.1] belongs 17.1 nM; to UCUCUUUGUAUCUCGCUCUCUU (ssRNA) [Ic_S1_P5E.1_K5.1_C5.1_H5.1_A5.1_[T6C]_[A7T]_F5.1_[T8C]_[T9G]_[A10C]_T5.1], 160 nM; to UCUCUUUGUACCUGGCUCUCUU (ssRNA) [Ic_S1_P5E.1_K5.1_C5.1_H5.1_A5.1_[T5C]_[T6C]_[A7T]_F5.1_[T8G]_[T9G]_[A10C]_T5.1], 489 nM. As to UCUCUUUGUACAGCCCUCUCUU (ssRNA) [Ic_S1_P5E.1_K5.1_C5.1_H5.1_A5.1_[T5C]_[T6A]_[A7G]_F5.1_[T8C]_[T9C]_[A10C]_T5.1], the Kd amounted to 142 nM. UCUCUUUGUAUAACCGUCUCUU (ssRNA) [Ic_S1_P5E.1_K5.1_C5.1_H5.1_A5.1_[T6A]_F5.1_[T8C]_[T9C]_[A10G]_T5.1] returned a Kd of 152 nM. With UCUCUUUGUAUUCGAUUCUCUU (ssRNA) [Ic_S1_P5E.1_K5.1_C5.1_H5.1_A5.1_[A7C]_F5.1_[T8G]_[T9A]_[A10T]_T5.1], binding was characterised by a dissociation constant (Kd) of 466 nM. Under UCUCUUUGUAACCUAUUCUCUU (ssRNA) [Ic_S1_P5E.1_K5.1_C5.1_H5.1_A5.1_[T5A]_[T6C]_[A7C]_F5.1_[T9A]_[A10T]_T5.1] stands 12.8 nM; under UCUCUUUGUAUUGUCUUCUCUU (ssRNA) [Ic_S1_P5E.1_K5.1_C5.1_H5.1_A5.1_[A7G]_F5.1_[T9C]_[A10T]_T5.1], 101 nM.

With UCUCUUUGUAAUCGACUCUCUU (ssRNA) [Ic_S1_P5E.1_K5.1_C5.1_H5.1_A5.1_[T5A]_[A7C]_F5.1_[T8G]_[T9A]_[A10C]_T5.1], the Kd amounted to 1540 nM. In turn, UCUCUUUGUAUGUCCUUCUCUU (ssRNA) [Ic_S1_P5E.1_K5.1_C5.1_H5.1_A5.1_[T6G]_[A7T]_F5.1_[T8C]_[T9C]_[A10T]_T5.1] returned a Kd of 88.1 nM. For UCUCUUUGUAGCAACCUCUCUU (ssRNA) [Ic_S1_P5E.1_K5.1_C5.1_H5.1_A5.1_[T5G]_[T6C]_F5.1_[T8A]_[T9C]_[A10C]_T5.1], binding was characterised by a dissociation constant (Kd) of 1850 nM.

As to UCUCUUUGUAUUUCUCUCUU (ssRNA) [Ic_S1_P3E.1_K3.1_C3.1_H3.1_A3.1_[A6T]_F3.1_[A8C]_T3.1], the Kd came out at 111 nM.

Take UCUCUUUGUAAAUCCGUCUCUU (ssRNA) [Ic_S1_P5E.1_K5.1_C5.1_H5.1_A5.1_[T5A]_[T6A]_[A7T]_F5.1_[T8C]_[T9C]_[A10G]_T5.1]: the Kd is 747 nM. As for UCUCUUUGUAAGCUUUUCUCUU (ssRNA) [Ic_S1_P5E.1_K5.1_C5.1_H5.1_A5.1_[T5A]_[T6G]_[A7C]_F5.1_[A10T]_T5.1], the Kd was 643 nM.

With UCUCUUUGUAGCGUUAUCUCUU (ssRNA) [Ic_S1_P5E.1_K5.1_C5.1_H5.1_A5.1_[T5G]_[T6C]_[A7G]_F5.1_T5.1], binding was put at a Kd of 36.4 nM. To UCUCUUUGUAAACACUUCUCUU (ssRNA) [Ic_S1_P5E.1_K5.1_C5.1_H5.1_A5.1_[T5A]_[T6A]_[A7C]_F5.1_[T8A]_[T9C]_[A10T]_T5.1] belongs 666 nM; to UCUCUUUGUACGUGCCUCUCUU (ssRNA) [Ic_S1_P5E.1_K5.1_C5.1_H5.1_A5.1_[T5C]_[T6G]_[A7T]_F5.1_[T8G]_[T9C]_[A10C]_T5.1], 583 nM; to UCUCUUUGUAAACUGGUCUCUU (ssRNA) [Ic_S1_P5E.1_K5.1_C5.1_H5.1_A5.1_[T5A]_[T6A]_[A7C]_F5.1_[T9G]_[A10G]_T5.1], 16.9 nM.

UCUCUUUGUAUCUCCGUCUCUU (ssRNA) [Ic_S1_P5E.1_K5.1_C5.1_H5.1_A5.1_[T6C]_[A7T]_F5.1_[T8C]_[T9C]_[A10G]_T5.1] displayed a Kd of 484 nM. On to UCUCUUUGUACGUUGUUCUCUU (ssRNA) [Ic_S1_P5E.1_K5.1_C5.1_H5.1_A5.1_[T5C]_[T6G]_[A7T]_F5.1_[T9G]_[A10T]_T5.1], for which the affinity, expressed as Kd, was 34.8 nM.

On to UCUCUUUGUACGUCACUCUCUU (ssRNA) [Ic_S1_P5E.1_K5.1_C5.1_H5.1_A5.1_[T5C]_[T6G]_[A7T]_F5.1_[T8C]_[T9A]_[A10C]_T5.1], for which the Kd was found to be 580 nM.

On to UCUCUUUGUACAUGUAUCUCUU (ssRNA) [Ic_S1_P5E.1_K5.1_C5.1_H5.1_A5.1_[T5C]_[T6A]_[A7T]_F5.1_[T8G]_T5.1], for which binding was characterised by a dissociation constant (Kd) of 8.91 nM. To UCUCUUUGUAACUAGUUCUCUU (ssRNA) [Ic_S1_P5E.1_K5.1_C5.1_H5.1_A5.1_[T5A]_[T6C]_[A7T]_F5.1_[T8A]_[T9G]_[A10T]_T5.1] belongs 642 nM; to UCUCUUUGUAGCUGUAUCUCUU (ssRNA) [Ic_S1_P5E.1_K5.1_C5.1_H5.1_A5.1_[T5G]_[T6C]_[A7T]_F5.1_[T8G]_T5.1], 47.8 nM; to UCUCUUUGUAGCCUACUCUCUU (ssRNA) [Ic_S1_P5E.1_K5.1_C5.1_H5.1_A5.1_[T5G]_[T6C]_[A7C]_F5.1_[T9A]_[A10C]_T5.1], 48.9 nM.

In general, Kd refers to the constant that tells how readily two partners part at equilibrium. Read a high Kd as lower affinity.
